Here are results for one substance from publication PMC3531475.

The target of experiment [1] is T1, adiponectin receptor type 1 (AdipoR1) (human (endogenous in SH-SY5Y)) (UniProt Q96A54).
T1 sequence: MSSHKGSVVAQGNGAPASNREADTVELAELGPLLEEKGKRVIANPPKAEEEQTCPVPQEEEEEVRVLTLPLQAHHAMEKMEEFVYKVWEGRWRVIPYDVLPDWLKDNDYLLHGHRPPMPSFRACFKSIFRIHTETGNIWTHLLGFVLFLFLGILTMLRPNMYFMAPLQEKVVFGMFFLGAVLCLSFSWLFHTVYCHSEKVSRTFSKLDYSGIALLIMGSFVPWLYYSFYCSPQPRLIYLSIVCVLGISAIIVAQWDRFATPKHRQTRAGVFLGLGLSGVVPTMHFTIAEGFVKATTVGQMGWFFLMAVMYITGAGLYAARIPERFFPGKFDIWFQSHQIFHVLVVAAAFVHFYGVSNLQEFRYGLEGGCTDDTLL

In experiment [2] the target is T2, adiponectin receptor type 2 (AdipoR2) (human (endogenous in SH-SY5Y)) (UniProt Q86V24).
T2 sequence: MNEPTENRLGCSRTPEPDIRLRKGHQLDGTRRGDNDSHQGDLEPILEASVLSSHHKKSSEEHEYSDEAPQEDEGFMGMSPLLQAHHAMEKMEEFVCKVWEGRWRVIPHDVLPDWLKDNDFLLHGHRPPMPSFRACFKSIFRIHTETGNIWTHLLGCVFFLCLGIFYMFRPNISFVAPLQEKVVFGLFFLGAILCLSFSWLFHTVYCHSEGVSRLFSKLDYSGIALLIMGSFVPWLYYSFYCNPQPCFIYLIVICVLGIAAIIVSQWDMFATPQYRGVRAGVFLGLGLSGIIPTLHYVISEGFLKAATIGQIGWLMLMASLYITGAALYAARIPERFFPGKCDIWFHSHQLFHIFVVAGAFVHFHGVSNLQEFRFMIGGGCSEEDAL

For “Mouse recombinant adiponectin (from UniProt Q60994 18-247) (ligand)”, the cytotoxicity (LDH release, fold of untreated) of Sw-APP transfected SH-SY5Y cells under H2O2 (200-800 µM), with adiponectin 10 µg/ml for 2 hours beforehand; most marked at 400 µM H2O2 (fold cytotoxicity) in experiment [1] and in experiment [2] was 2.7 each time.
